In general, Kd refers to the constant that tells how readily two partners part at equilibrium. The koff is the first-order rate constant of dissociation. A word on the kon: it is the rate constant with which the complex forms.

In assay [1] the target is T1, human CD40L, membrane-bound on cells (human, UniProt P29965 1-261).
T1 sequence: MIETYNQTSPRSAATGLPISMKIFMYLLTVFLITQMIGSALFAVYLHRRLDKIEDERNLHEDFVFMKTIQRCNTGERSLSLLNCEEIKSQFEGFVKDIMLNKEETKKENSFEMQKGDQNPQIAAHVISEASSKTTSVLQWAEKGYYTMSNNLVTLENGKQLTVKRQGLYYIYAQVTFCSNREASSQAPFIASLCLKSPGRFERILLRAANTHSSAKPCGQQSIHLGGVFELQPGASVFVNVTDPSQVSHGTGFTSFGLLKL
As to the kind of experiment: cell-based or functional assay.

The target in assay [2] is human isoleucine zipper-CD40L (IZ-hCD40L) (human) (UniProt P29965). The assay can be described thus: cell-based or functional assay.
Assay [3] addresses human FcRn (human) (UniProt P55899). As to the kind of experiment: SPR; captured on biot-IZ-hCD40L surface, soluble FcR as analyte; pH 6. (In SPR one partner is held on a chip, and binding of the other changes the refractive index at the surface.)
Assay [4] addresses human CD16a (FcγRIIIa) (human) (UniProt P08637). The assay can be described thus: SPR; captured on biot-IZ-hCD40L surface, soluble FcR as analyte; pH 7.1.
The target of assay [5] is human CD64 (FcγRI) (human) (UniProt P12314). Described as above.
Chain of human CD64 (FcγRI) (human) (P12314 16-288 limits assumed): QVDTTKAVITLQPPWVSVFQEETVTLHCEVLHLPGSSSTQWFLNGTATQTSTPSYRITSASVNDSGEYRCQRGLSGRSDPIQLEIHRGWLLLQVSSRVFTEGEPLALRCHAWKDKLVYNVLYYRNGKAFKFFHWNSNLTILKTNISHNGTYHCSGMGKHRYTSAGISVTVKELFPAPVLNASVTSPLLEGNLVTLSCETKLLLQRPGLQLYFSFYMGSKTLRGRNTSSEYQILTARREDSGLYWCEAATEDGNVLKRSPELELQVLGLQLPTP
Assay [6] concerns the target cynomolgus monkey CD40L on cells (cynomolgus monkey) (UniProt G7Q1T4). The assay can be described thus: in vivo receptor occupancy on monkey PBMC, 20 mg/kg IV, 48 h post-dose.
Assay [7] has the same target. The assay can be described thus: in vivo receptor occupancy on monkey PBMC, 20 mg/kg IV, through 1032 h.
The target in assay [8] is human CD32a (FcγRIIa), soluble (human) (UniProt P12318). The assay can be described thus: SPR; biphasic binding, steady state fit to the dominant binding event; pH 7.1.
Chain of human CD32a (FcγRIIa), soluble (human) (P12318 36-218 limits assumed): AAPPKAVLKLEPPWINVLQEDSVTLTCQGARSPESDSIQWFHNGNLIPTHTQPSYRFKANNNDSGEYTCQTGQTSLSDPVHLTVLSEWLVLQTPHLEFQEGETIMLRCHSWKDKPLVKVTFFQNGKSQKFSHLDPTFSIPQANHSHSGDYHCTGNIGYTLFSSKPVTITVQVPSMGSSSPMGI
For assay [9], the target named is T2, human isoleucine zipper-CD40L (IZ-hCD40L) (human, UniProt P29965 113-261).
T2 sequence: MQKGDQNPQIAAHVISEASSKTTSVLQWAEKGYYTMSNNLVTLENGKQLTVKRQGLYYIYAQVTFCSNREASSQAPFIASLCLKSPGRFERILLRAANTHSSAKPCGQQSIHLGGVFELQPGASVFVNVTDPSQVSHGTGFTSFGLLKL
As to the kind of experiment: cell-based or functional assay.

For assay [10], the target named is T1, human CD40L, membrane-bound on cells. As to the kind of experiment: cell-based or functional assay. The source holds these as a separate data set.
The target of assay [11] is T3, biotinylated IZ-hCD40L (biot-IZ-hCD40L) (human, UniProt P29965 113-261, biotinylated).
T3 construct: biotinylated version of IZ-hCD40L captured on streptavidin chip; also called biotinylated CD40L; not shown: N-terminal isoleucine zipper motif
T3 sequence: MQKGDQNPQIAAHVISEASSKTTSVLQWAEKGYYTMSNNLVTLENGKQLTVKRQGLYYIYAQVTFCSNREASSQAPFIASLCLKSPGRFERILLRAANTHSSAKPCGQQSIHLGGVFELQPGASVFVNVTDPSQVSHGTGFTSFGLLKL
The assay can be described thus: SPR (Biacore), 25 C, 1:1 Langmuir; monovalent dAb. An excerpt:
The SPR experiments utilized a hCD40L construct containing an N-terminal isoleucine zipper motif (IZ-hCD40L) which facilitates the specific assembly of the CD40L molecule into the native trimeric form.

A value given as a limit tells only on which side of the number the result lay.

Chain of human FcRn (human) (P55899 24-297 limits assumed, chain 1 of 2): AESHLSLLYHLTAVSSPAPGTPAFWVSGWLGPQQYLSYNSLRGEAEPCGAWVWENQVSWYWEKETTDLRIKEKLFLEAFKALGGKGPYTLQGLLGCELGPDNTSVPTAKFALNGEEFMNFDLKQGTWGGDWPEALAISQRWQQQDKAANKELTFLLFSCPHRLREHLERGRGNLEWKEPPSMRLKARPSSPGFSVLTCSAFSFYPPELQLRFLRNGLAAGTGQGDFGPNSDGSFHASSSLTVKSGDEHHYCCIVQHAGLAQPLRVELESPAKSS
Chain of human FcRn (human) (P61769 21-119 limits assumed, chain 2 of 2, further chain): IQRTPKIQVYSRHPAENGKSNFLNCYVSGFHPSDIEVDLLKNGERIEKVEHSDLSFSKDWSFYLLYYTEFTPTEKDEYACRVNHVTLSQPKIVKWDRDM
Chain of human CD16a (FcγRIIIa) (human) (P08637 17-208 limits assumed): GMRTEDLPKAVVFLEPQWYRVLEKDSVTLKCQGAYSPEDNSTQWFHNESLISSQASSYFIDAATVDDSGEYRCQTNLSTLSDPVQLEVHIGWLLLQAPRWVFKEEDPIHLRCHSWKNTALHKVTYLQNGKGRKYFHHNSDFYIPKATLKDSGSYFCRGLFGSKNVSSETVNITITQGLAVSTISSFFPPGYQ

Turning to 5c8 mAb (antibody), in assay [1], the CHO-CD40L B cell Assay EC50 was 2 nM, the CHO-CD40L DC Assay IL-12 EC50 came to 2 nM, the T-B MLR EC50 came to 0.54 nM and the T-B MLR IL-6 EC50 stood at 0.23 nM. This molecule also displayed a Trimer B cell Assay EC50 in assay [2] of 8 nM.

For the molecule 5c8-IgG1 (antibody), the Kd is 590 nM in [3], 240 nM in assay [4], < 0.05 nM in assay [5] and 100 nM in assay [8]. In [6], this molecule came in with a mean peak receptor occupancy of 100%. Also, the receptor occupancy in assay [7] is > 97%.

B1: BMS2h-572-633 (other)
VH: EVQLLESGGGLVQPGGSLRLSCAASGFTFNWELMGWARQAPGKGLEWVSGIEGPGDVTYYADSVKGRFTISRDNSKNTLYLQMNSLRAEDTAVYYCVKVGKDAKSDYRGQGTLVTVSS
notes: VH dAb, monovalent
For the molecule B1, the “hIZCD40L-driven Human B Cell Proliferation EC50” value in [9] was 20 nM. The “CHO-hCD40L-driven DC Activation IL-12 EC50” value in [10] amounted to 53 nM. Moreover, in assay [11], binding was characterised by a dissociation constant (Kd) of 7.8 nM, the dissociation rate constant (koff) is 0.0081 s⁻¹ and the on-rate constant (kon) was found to be 1e+06 M⁻¹ s⁻¹.

For the origin of these results see patent publication US20160075790A1 (Bristol-Myers Squibb, published 2016).
